# From patent US7354734B2, “Fungal proteins and nucleic acids encoding same” (priority 2003, dated 2008)
# “Also recorded” adds a separate entry of the source.
# Tests used:
# [1] = type: biochemical
# [2] = type: biochemical; conditions: substrate Lys(Abz)Pro-PropNA 5 mM, 37° C., 60 min
# [3] = test system: gliadin 14mer PQPQLPYPQPQLPY (fragment 82-95 of α/β gliadin AIV); type: biochemical, wheat
# [4] = test system: gliadin 33mer (fragment 57-89 of gliadin MM1); assay: Digestion of gliadin 33mer (RP-HPLC, ESI-MS); type: biochemical, wheat; conditions: 37° C.
# [5] = test system: Gly-Ser-proNPY; assay: Digestion of Gly-Ser-proNPY; type: biochemical; conditions: overnight 37° C., 1 mM CoCl2, E/S 1:20
# From the text: The digested material was isolated by RP-HPLC and characterized by ESI-MS. […] The same result is obtained at an 1:[…] ratio. Digestion halts when the enzyme reaches a Xaa-Pro-motif, which in case of proNPY is Tyr-Pro.
# [6] = test system: Ala-proNPY; assay: Digestion of Ala-proNPY; type: biochemical; conditions: conditions as for Gly-Ser-proNPY
# Method: The digested material was isolated by RP-HPLC and characterized by ESI-MS. […] The same result is obtained at an 1:[…] ratio. Digestion halts when the enzyme reaches a Xaa-Pro-motif, which in case of proNPY is Tyr-Pro. Conditions of incubation were the same as for Gly-Ser-proNPY.
# [7] = test system: denatured casein
molecule,measurement,setting,value
"ruLAP2: T. rubrum leucine aminopeptidase, 495 amino acid residues (SEQ ID NO: 3) (protein, listed as Trichophyton rubrum) MKSQLLSLAVAVTTISQGVVGQEPFGWPFKPMVTQDDLQNKIKLKDIMAGVEKLQSFSDAHPEKNRVFGGNGHKDTVEWIYNEIKATGYYDVKKQEQVHLWSHAEAALNANGKDLKASAMSYSPPASKIMAELVVAKNNGCNATDYPANTQGKIVLVERGVCSFGEKSAQAGDAKAAGAIVYNNVPGSLAGTLGGLDKRHVPTAGLSQEDGKNLATLVASGKIDVTMNVISLFENRTTWNVIAETKGGDHNNVIMLGAHSDSVDAGPGINDNGSGSIGIMTVAKALTNFKLNNAVRFAWWTAEEFGLLGSTFYVNSLDDRELHKVKLYLNFDMIGSPNFANQIYDGDGSAYNMTGPAGSAEIEYLFEKFFDDQGIPHQPTAFTGRSDYSAFIKRNVPAGGLFTGAEVVKTPEQVKLFGGEAGVAYDKNYHRKGDTVANINKGAIFLNTRAIAYAIAEYARSLKGFPTRPKTGKRDVNPQYSKMPGGGCGHHTVFM",hydrolytic activity toward Asp-AMC,[1]; compared to Leu-AMC,efficiently cleaved; also recorded: efficiently hydrolyze
same,hydrolytic activity toward Glu-AMC,[1]; compared to Leu-AMC,efficiently cleaved; also recorded: efficiently hydrolyze
same,hydrolytic activity toward Pro-AMC,[1]; compared to Leu-AMC,more efficiently cleaved
same,hydrolytic activity toward Ser-AMC,[1]; compared to Leu-AMC,more efficiently cleaved
same,hydrolytic activity toward Ala-AMC in comparison to Leu-MCA used as a standard,"[1]; substrate Ala-AMC 5 mM, 37° C., 60 min",33.3%
same,hydrolytic activity toward Arg-AMC in comparison to Leu-MCA used as a standard,"[1]; substrate Arg-AMC 5 mM, 37° C., 60 min",1.9%
same,hydrolytic activity toward Asn-AMC in comparison to Leu-MCA used as a standard,"[1]; substrate Asn-AMC 5 mM, 37° C., 60 min",114.6%
same,hydrolytic activity toward Asp-AMC in comparison to Leu-MCA used as a standard,"[1]; substrate Asp-AMC 5 mM, 37° C., 60 min",3.8%
same,hydrolytic activity toward Cys-AMC in comparison to Leu-MCA used as a standard,"[1]; substrate Cys-AMC 5 mM, 37° C., 60 min",14.9%
same,hydrolytic activity toward Gln-AMC in comparison to Leu-MCA used as a standard,"[1]; substrate Gln-AMC 5 mM, 37° C., 60 min",49.9%
same,hydrolytic activity toward Glu-AMC in comparison to Leu-MCA used as a standard,"[1]; substrate Glu-AMC 5 mM, 37° C., 60 min",3.7%
same,hydrolytic activity toward Gly-AMC in comparison to Leu-MCA used as a standard,"[1]; substrate Gly-AMC 5 mM, 37° C., 60 min",3.3%
same,hydrolytic activity toward Gly-Pro-AMC in comparison to Leu-MCA used as a standard,"[1]; substrate Gly-Pro-AMC 5 mM, 37° C., 60 min",7.2%
same,hydrolytic activity toward His-AMC in comparison to Leu-MCA used as a standard,"[1]; substrate His-AMC 5 mM, 37° C., 60 min",0.6%
same,hydrolytic activity toward Hyp-AMC in comparison to Leu-MCA used as a standard,"[1]; substrate Hyp-AMC 5 mM, 37° C., 60 min",14.2%
same,hydrolytic activity toward Ile-AMC in comparison to Leu-MCA used as a standard,"[1]; substrate Ile-AMC 5 mM, 37° C., 60 min",6.4%
same,hydrolysis of Leu-AMC,[1]; substrate Leu-AMC,efficiently hydrolyzed; also recorded: common preference
same,hydrolytic activity toward Leu-AMC in comparison to Leu-MCA used as a standard,"[1]; substrate Leu-AMC 5 mM, 37° C., 60 min",100.0%
same,hydrolytic activity toward Lys-AMC in comparison to Leu-MCA used as a standard,"[1]; substrate Lys-AMC 5 mM, 37° C., 60 min",4.6%
same,hydrolytic activity toward Met-AMC in comparison to Leu-MCA used as a standard,"[1]; substrate Met-AMC 5 mM, 37° C., 60 min",119.7%
same,hydrolytic activity toward Phe-AMC in comparison to Leu-MCA used as a standard,"[1]; substrate Phe-AMC 5 mM, 37° C., 60 min",17.1%
same,hydrolytic activity toward Pro-AMC in comparison to Leu-MCA used as a standard,"[1]; substrate Pro-AMC 5 mM, 37° C., 60 min",21.4%
same,hydrolytic activity toward Pyr-AMC in comparison to Leu-MCA used as a standard,"[1]; substrate Pyr-AMC 5 mM, 37° C., 60 min",0.0%
same,hydrolytic activity toward Ser-AMC in comparison to Leu-MCA used as a standard,"[1]; substrate Ser-AMC 5 mM, 37° C., 60 min",26.1%
same,hydrolytic activity toward Thr-AMC in comparison to Leu-MCA used as a standard,"[1]; substrate Thr-AMC 5 mM, 37° C., 60 min",0.9%
same,hydrolytic activity toward Val-AMC in comparison to Leu-MCA used as a standard,"[1]; substrate Val-AMC 5 mM, 37° C., 60 min",4.8%
same,hydrolytic activity toward Lys(Abz)Pro-PropNA in comparison to Leu-MCA used as a standard,[2],0.0%
same,"digestion of gliadin 14mer, supplemented with ruDPPIV",[3],complete breakdown
same,"digestion of gliadin 14mer, enzyme alone","[3]; 4 h, 37° C.",not digested
same,"digestion of gliadin 33mer, mixed with ruDPPIV",[4]; enzyme plus ruDPPIV (DPPIV),totally digested; also recorded: same HPLC pattern
same,"degradation of gliadin 33mer, enzyme alone",[4]; within 4 h,less than 50%
same,N-terminal cleavage of Gly-Ser-proNPY,[5],cleavage of the two N-terminal residues Gly-Ser
same,removal of N-terminal alanine from Ala-proNPY,[6],almost totally removed
same,digestion of denatured casein,[7],sequentially digest
